Test results: paper PMC3043148 (Biochemistry, 2011)
Numbering of substitutions follows the chain as printed. In names and notes the source's numbering stands.

T1: human adenylosuccinate lyase (ASL), wild type, His-tag (human, UniProt P30566 1-481)
T1 sequence: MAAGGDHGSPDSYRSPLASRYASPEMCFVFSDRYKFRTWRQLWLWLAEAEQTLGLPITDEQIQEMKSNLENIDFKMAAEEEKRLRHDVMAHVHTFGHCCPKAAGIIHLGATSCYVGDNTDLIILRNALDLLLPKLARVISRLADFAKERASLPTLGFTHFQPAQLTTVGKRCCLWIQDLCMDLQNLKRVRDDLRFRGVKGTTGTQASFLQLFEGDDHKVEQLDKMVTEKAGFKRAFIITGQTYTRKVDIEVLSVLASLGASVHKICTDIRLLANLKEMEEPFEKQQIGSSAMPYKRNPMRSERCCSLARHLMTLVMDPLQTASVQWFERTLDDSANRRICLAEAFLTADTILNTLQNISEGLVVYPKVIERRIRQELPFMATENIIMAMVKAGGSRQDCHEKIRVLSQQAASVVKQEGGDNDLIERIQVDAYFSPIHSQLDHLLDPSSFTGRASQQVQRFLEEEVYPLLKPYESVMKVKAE

T2: human adenylosuccinate lyase (ASL) L311V, His-tag (human, UniProt P30566 1-481, L311V)
T2 sequence: T1 sequence with L311V

B1: human adenylosuccinate lyase (ASL) R396H, non-His-tag (enzyme)
chain: T1 sequence with R396H
B2: human adenylosuccinate lyase (ASL), wild type, non-His-tag (enzyme)
chain: T1 sequence

Tests used:
[1] = biological target: T1, human adenylosuccinate lyase (ASL), …; test: AUC
[2] = biological target: T2, human adenylosuccinate lyase (ASL) …; test: AUC
[3] = biological target: the molecule itself; test: AUC
[4] = biological target: T1, human adenylosuccinate lyase (ASL), …; test: AUC; remark: listed apart in the source
[5] = biological target: T2, human adenylosuccinate lyase (ASL) …; test: AUC; remark: listed apart in the source
[6] = biological target: T1, human adenylosuccinate lyase (ASL), …; test: in vitro subunit hybridisation with separation on Ni-NTA
[7] = biological target: T2, human adenylosuccinate lyase (ASL) …; test: as above
[8] = biological target: the molecule itself; test: AUC; remark: listed apart in the source

Row | Binder | stoichiometry N [1] | stoichiometry N [2] | stoichiometry N [3] | percent tetramer (M-Tet model), pool 2 [4] | percent tetramer (M-Tet model), pool 3 [4] | percent tetramer (M-Tet model), pool 2 [5] | percent tetramer (M-Tet model), pool 3 [5] | subunit ratio (Non-His-tag: His-tag) by SDS-PAGE, pool 2 [6] | subunit ratio (Non-His-tag: His-tag) by SDS-PAGE, pool 3 [6] | subunit ratio (Non-His-tag: His-tag) by SDS-PAGE, pool 2 [7] | subunit ratio (Non-His-tag: His-tag) by SDS-PAGE, pool 3 [7] | percent tetramer (M-Tet model), pool 1 [8]
1 | B1 | 4 | 4 | 4 | 73% | 72% | 74% | 74% | 1.1 non-His-tag per His-tag subunit | 1.6 His-tag per non-His-tag subunit | 1.8 non-His-tag per His-tag subunit | 1 non-His-tag per His-tag subunit | 
2 | B2 |  |  |  | 73% | 75% |  |  | 1.3 non-His-tag per His-tag subunit | 3.7 His-tag per non-His-tag subunit |  |  | 68%
